Assays:
[1] = target: T1, beta amyloid peptide (Aβ) (human, UniProt P05067 672-713, limits assumed); assay: BIAcore
T1 construct: also called A-beta; β-amyloid peptide

[2] = target: T1, beta amyloid peptide (Aβ); assay: average of ELISA and BIAcore results
[3] = target: T1, beta amyloid peptide (Aβ); assay: ELISA competitive binding assay with biotinylated 3D6

B1: humanized 3D6 version 1 (antibody, V domains shown)
VH: EVQLLESGGGLVQPGGSLRLSCAASGFTFSNYGMSWVRQAPGKGLEWVASIRSGGGRTYYSDNVKGRFTISRDNAKNSLYLQMNSLRAEDTALYYCVRYDHYSGSSDYWGQGTLVTVSS
VL: YVVMTQSPLSLPVTPGEPASISCKSSQSLLDSDGKTYLNWLLQKPGQSPQRLIYLVSKLDSGVPDRFSGSGSGTDFTLKISRVEAEDVGVYYCWQGTHFPRTFGQGTKVEIK
notes: Human constant regions (light chain vector pCMV-cK); also called humanized 3D6v1; h3D6v1
A Kd [1] of 2.06 nM, a koff [1] of 0.000382 s⁻¹ and a kon [1] of 185000 M⁻¹ s⁻¹ were found for B1 in this work. The “fold loss of binding affinity against 3D6” value [2] was about 3 fold and the “fold less binding affinity than 3D6” value [3] was about 6 fold.
